T1: Fluorogenic peptide substrate ENLYFQKGGK with K at P1'
T1 chain: ENLYFQKGGK

T2: Fluorogenic peptide substrate ENLYFQLGGK with L at P1'
T2 chain: ENLYFQLGGK

T3: Fluorogenic peptide substrate ENLYFQRGGK with R at P1'
T3 chain: ENLYFQRGGK

T4: Fluorogenic peptide substrate ENLYFQEGGK with E at P1'
T4 chain: ENLYFQEGGK

T5: Fluorogenic peptide substrate ENLYFQVGGK with V at P1'
T5 chain: ENLYFQVGGK

T6: Fluorogenic peptide substrate ENLYFQIGGK with I at P1'
T6 chain: ENLYFQIGGK

T7: Fluorogenic peptide substrate ENLYFQGGGK with G at P1'
T7 chain: ENLYFQGGGK

T8: Fluorogenic peptide substrate ENLYFQTGGK with T at P1'
T8 chain: ENLYFQTGGK

B1: TEV protease variant P1-M218F (SEQ ID NO:1 with Q74L, S135G, I138T, S153N, R203G and M218F) (protein)
chain: GESLFKGPRDYNPISSSICHLTNESDGHTTSLYGIGFGPFIITNKHLFRRNNGTLLVQSLHGVFKVKDTTTLQLHLVDGRDMIIIRMPKDFPPFPQKLKFREPQREERICLVTTNFQTKSMSSMVSDTSCTFPSGDGTFWKHWIQTKDGQCGNPLVSTRDGFIVGIHSASNFTNTNNYFTSVPKNFMELLTNQEAQQWVSGWGLNADSVLWGGHKVFFNKPEEPFQPVKEATQLMN
B2: TEV protease double mutant DM (SEQ ID NO:1 with S153N and R203G) (protein)
chain: GTHHHHHHGSGSGTGESLFKGPRDYNPISSSICHLTNESDGHTTSLYGIGFGPFIITNKHLFRRNNGTLLVQSLHGVFKVKDTTTLQQHLVDGRDMIIIRMPKDFPPFPQKLKFREPQREERICLVTTNFQTKSMSSMVSDTSCTFPSSDGIFWKHWIQTKDGQCGNPLVSTRDGFIVGIHSASNFTNTNNYFTSVPKNFMELLTNQEAQQWVSGWGLNADSVLWGGHKVFMNKPEEPFQPVKEATQLMN

Legend:
[1] = target: T1, Fluorogenic peptide substrate …
[2] = target: T2, Fluorogenic peptide substrate …
[3] = target: T3, Fluorogenic peptide substrate …
[4] = target: T4, Fluorogenic peptide substrate …
[5] = target: T5, Fluorogenic peptide substrate …
[6] = target: T6, Fluorogenic peptide substrate …
[7] = target: T7, Fluorogenic peptide substrate …
[8] = target: T8, Fluorogenic peptide substrate …

| Protein | Km (Michaelis Menten kinetics, fluorogenic peptide cleavage) [1] [µM] | Km (Michaelis Menten kinetics, fluorogenic peptide cleavage) [2] [µM] | Km (Michaelis Menten kinetics, fluorogenic peptide cleavage) [3] [µM] | Km (Michaelis Menten kinetics, fluorogenic peptide cleavage) [4] [µM] | Km (Michaelis Menten kinetics, fluorogenic peptide cleavage) [5] [µM] | Km (Michaelis Menten kinetics, fluorogenic peptide cleavage) [6] [µM] | Km (Michaelis Menten kinetics, fluorogenic peptide cleavage) [7] [µM] | Km (Michaelis Menten kinetics, fluorogenic peptide cleavage) [8] [µM] |
| --- | --- | --- | --- | --- | --- | --- | --- | --- |
| B1 | 7.4 | 2.2 | 14.5 | 1.5 | 2.5 | 5.3 | 2.9 | 1.1 |
| B2 | 13.8 | 23.2 | 47.2 | 41 | 45.8 | 45.9 | 13.7 | 7 |

— US20260139239
